Patent EP4725966A1, “HUMAN EPIDERMAL GROWTH FACTOR 3 ANTIBODY, PREPARATION METHOD THEREFOR, AND USE THEREOF” (priority 2023, dated 2024)

Columns and labels:
[1] = tested on: A375 cells overexpressing human HER3; experiment: ADC cytotoxicity, CellTiter-Glo; type: cell-based; settings: Example 21, FIG. 13
[2] = tested on: HER3-overexpressing A375 cells; experiment: Cell imaging of internalization; type: cell-based; settings: 100 nM, FIG. 11
Protocol: A cell imaging microplate detection system was used to monitor the internalization of hHE4-G1W, hHE4-G1W-DXd, patritumab, and patritumab-DXd after binding to HER3 on the surface of A375 tumor cells. hHE4-G1W, hHE4-G1W-DXd, patritumab, and patritumab-DXd (each 100 nM) were incubated with HER3-overexpressing A375 cells at 4°C for 30 minutes, respectively. Unbound antibodies were removed by washing, and PE-labeled goat anti-human Fc secondary antibody (Jackson) was added. The mixture was incubated at 4°C for 30 minutes, and then the unbound secondary antibody was removed by washing. When the antibodies were bound to the surface of A375 cells and had not yet undergone internalization, these samples were designated as the 0h samples. Fluorescence images were acquired using a Biotek Cytation 1 imaging reader. Cells were then incubated at 37°C for 3 hours and imaged again.

[3] = tested on: HER3-expressing HCC1569 cells; experiment: ADC cytotoxicity; type: cell-based; settings: FIG. 13
Protocol: (§1) A375 and OVCAR3 cells were seeded in 96-well plates at 5,000 cells per well, and gradient-diluted ADCs (cHE4-G1W-DXd, cHE5-G1W-DXd, cHE7-G1W-DXd, patritumab-DXd, and IgG-DXd) were added. After incubation at 37°C for 5 days, cell viability was measured using CellTiter-Glo (Promega) to evaluate cytotoxicity of the ADCs.
(§2) The cytotoxicity of antibody-drug conjugates based on hHE4-G1W against HER3-expressing HCC1569, A375, and JIMT-1 tumor cells was tested. Antibody-drug conjugates were prepared as described in Example 11. Hydrophobic interaction chromatography indicated the antibody-to-Dxd ratios for cHE4-G1W-DXd, hHE4-G1W-DXd, patritumab-DXd, and negative control IgG-DXd were 1:7, 1:8, 1:7.8, and 1:8, respectively.

[4] = tested on: human HER3-overexpressing JIMT-1 cells; experiment: ADC cytotoxicity; type: cell-based; settings: FIG. 13
Protocol: as §1, §2

SW620 tumor = experiment: Tumor inhibition in SW620 tumor-bearing mice; type: in vivo, Female SCID mice; settings: for tumor growth: single dose, FIG. 14
Protocol: (§3) The anti-tumor efficacy of hHE4-G1W-DXd and cHE5-G1W-DXd was evaluated in SW620 tumor-bearing mice. Female SCID mice were subcutaneously injected with SW620 cells in the dorsal region to establish the xenograft model. After tumor establishment, mice were randomly divided into nine groups and treated with a single dose. Three groups served as negative controls: one group received PBS, and two groups received IgG-DXd at low dose (3 mg/kg) and high dose (6 mg/kg), respectively. Experimental groups were administered with hHE4-G1W-DXd, cHE5-G1W-DXd, or patritumab-DXd at 3 mg/kg or 6 mg/kg. The average Dxd-to-antibody ratio was 8. Mouse body weights and tumor volumes were measured.

DiFi tumor = experiment: Tumor inhibition in DiFi tumor-bearing mice; type: in vivo, Female SCID mice
Protocol: as §3, with “DiFi” for “SW620”, “once per week for three weeks.” for “with a single dose.”

B1: hHE4-G1W-DXd (conjugate)
heavy: QVQLVESGGGLVKPGGSLRLSCAASGFTFSSYVMSWVRQAPGKGLEWVATISDGDSSTYYADSVKGRFTISRDNAKNSLYLQMNSLRAEDTAVYYCARDKGHGYDEGAFVYWGQGTLVTVSS
light: DIQMTQSPSSLSASVGDRVTITCRASENIYSYLAWYQQKPGKAPKLLIYNAKTLAEGVPSRFSGSGSGTDFTLTISSLQPEDFATYYCQNHYGTPYTFGQGTKLEIKR
modifications: left off: a dimerising Fc or GST
cytotoxicity against A375 cells [1]: significant cytotoxicity | binding to HER3 on the surface of A375 cells ([2]; 0 hour): bound to HER3 expressed on the cell surface | internalization into A375 cells ([2]; after 3 hours at 37°C): internalized into the A375 cells | cytotoxicity against HCC1569 cells [3]: significant cytotoxicity | cytotoxicity against JIMT-1 cells [4]: significant cytotoxicity | cytotoxicity compared with patritumab-DXd ([4]; JIMT-1 cells): superior cytotoxicity compared with patritumab-DXd | tumor growth (SW620 tumor; 3 mg/kg): prevented tumor growth | tumor growth (SW620 tumor; 6 mg/kg): complete tumor regression in one mouse | tumor inhibition compared with patritumab-DXd (SW620 tumor; overall conclusion, SW620): superior tumor inhibition against SW620 tumor compared with patritumab-DXd | tumor inhibition compared with patritumab-DXd (DiFi tumor; low dose of 3 mg/kg, once per week for three weeks): superior tumor inhibition compared with patritumab-DXd | tumor inhibition compared with patritumab-DXd (DiFi tumor; overall conclusion, DiFi): equivalent or improved tumor inhibition against DiFi tumors compared with patritumab-DXd
